Assay results as given in patent US20090156496A1, “METHODS AND COMPOSITIONS FOR TREATING AND PREVENTING PERIPHERAL NERVE DAMAGE” (CHILDREN'S MEDICAL CENTER CORPORATION, INC., priority 2006, published 2009).
Entries after “also recorded” stand apart in the source; their conditions may differ.

Legend:
RGCs [1] = assay: axon outgrowth in primary adult retinal cultures; format: cell-based, rat
Experimental: Protein A beads (Sigma) were incubated with either rabbit anti-OM antiserum (Swant) or normal rabbit serum (Invitrogen) for 16 h at 4° C. After extensive rinsing, beads with adsorbed IgGs were mixed with MCM (1 ml 10× concentrate, collected 8 h after zymosan treatment) for 24 h at 4° C. and then pelleted down by centrifugation. We tested 5 μl of the supernatants or untreated MCM for oncomodulin by western blotting. Bioactivity of immune-depleted and control MCM was tested in dissociated RGC cultures as described below at a 1:4 dilution, a concentration found to give a near-maximal response.
(§1) Adult rat retinal cultures were prepared as described^21. […] One week later, retinas were dissected, dissociated, and the cells plated in defined, serum-free medium. Axon growth (% RGCs extending axons ≧30 μm, ≧70 μm or ≧140 μm in length) was evaluated after 3 d in quadruplicate samples in a blinded fashion. All experiments were repeated at least three separate times. In some instances, cells were immunostained with GAP-43 antibody (1:500, Chemicon).

optic nerve = optic nerve regeneration in vivo after nerve crush, intraocular PLGA microspheres; design: species or system rat; conditions: 2 weeks, agent by itself
Experimental: Microspheres were prepared from lyophilized oncomodulin or sp-8-Br-cAMPs (Sigma) with PLGA using the solvent evaporation method of single emulsion^49. To measure the rate of protein release in vitro, 10 mg of oncomodulin-containing beads were incubated in phosphate-buffered saline (PBS; 37° C.). Supernatants were collected every 3 d and analyzed on western blots.
Optic nerve surgery was carried out on male Fisher rats (200-250 g) as described^18. Three days after nerve crush, rats received intraocular injections of blank microspheres or microspheres containing oncomodulin, sp-8-Br-cAMPs or both, in 10 μl saline after the same fluid volume was withdrawn from the eye (n=8-12 per group). Rats were killed 2 weeks later and their retinas, with optic nerves attached, were prepared as described^18,21. Axon growth was evaluated by GAP-43 immunostaining in the optic nerve at distances of 500 μm and 1 mm from the injury site^18,21. The length of the longest axon was measured in each case and averaged across all cases within each group.

P-CREB = P-CREB immunostaining in RGCs after intravitreous injection; format: in vivo, rat; conditions: 2 h after intravitreous injection, 1 μg μl^−1, 5 μl
Experimental: To investigate the immediate effects of oncomodulin in vivo, rats received an intravitreous injection of the protein (1 μg μl^−1, 5 μl volume, n=6) and were killed 2 h later. Retinal sections were immunostained to detect the phosphorylated form of the transcriptional activator CREB (antibody to P-CREB, 1:100, Cell Signaling Technology). Fluorescent photomicrographs were taken 2 mm from the optic nerve head.

RGCs [2] = assay: ligand binding assay with AP-oncomodulin fusion proteins on immunopurified RGCs; design: species or system rat
Experimental: Adult rat retinal cells were dissociated as above and then isolated by immunopanning^31,46 using antibody MAC1 followed by an antibody to Thy1 (Chemicon). Purity was ˜98% based upon counting Fluorogold-labeled versus total cells. RGCs, treated with or without forskolin, were lightly fixed after 14-16 h in culture (4% paraformaldehyde (PFA), 6 min) before binding assays.
Binding assays were carried out as described^48 with slight modifications. Briefly, lightly fixed, immunopurified RGCs were incubated with AP-OM or AP (37° C., 24 h).
After extensive rinsing, cells were fixed again, heated (65° C., 90 min) to destroy endogenous AP and incubated with nitro blue tetrazolium chloride/5-bromo-4-chloro-3-indoyl phosphate toluidine salt (BCIPINBT). In some instances, AP-OM or AP (control), with or without forskolin, was added to the cultures before the initial fixation. Absorbance was measured with Image J software (US National Institutes of Health) and corrected by subtracting the level of AP binding. Binding curves and Scatchard plots were generated using Prism software. For displacement studies, varying concentrations of unlabeled oncomodulin were added to cultures after the equilibrium binding of 40 mM AP-OM at 37° C. for 24 h.

DRG neurons [3] = assay: neurite outgrowth of DRG neurons cultured after intraganglionic injection in vivo; format: cell-based, rat
Experimental: (§2) L4-L5 DRGs from adult male Sprague-Dawley rats (250-300 g) were injected with 5 μl of saline or oncomodulin (200 ng μl^−1). After 7 d, injected ganglia were dissected and single-cell suspensions were prepared as described^50. Cells were cultured on laminin (Sigma) with or without CSPGs (Chemicon) for 20 h or 40 h. In some cases, chondroitinase ABC (0.5 U ml^−1, Seikagaku) was added. Neurite outgrowth was visualized by Tuj1 antibody to class III β-tubulin (1:5,000, Babco) and quantified in quadruplicate samples by a blinded observer. In other studies, L4-L5 DRG neurons were cultured in the presence of absence of oncomodulin, mannose and/or forskolin in RPMI-1640 to limit spontaneous outgrowth. Cells were fixed and immunostained after 3 d and evaluated for outgrowth.

RGCs [4] = assay: RGC survival in primary retinal cultures; format: cell-based, rat; conditions: retinal culture
Experimental: as §1

DRG neurons [5] = assay: neurite outgrowth of naive DRG neurons in culture; format: cell-based, rat; conditions: 3 d culture
Experimental: as §2

[6] = in the absence of forskolin and mannose
[7] = in the presence of forskolin and mannose, 3 d, BDNF 50 ng ml^−1, CNTF 10 ng ml^−1, GDNF 50 ng ml^−1

B1: oncomodulin: 11.7-kDa Ca2+-binding protein secreted by macrophages; recombinant rat oncomodulin expressed in Escherichia coli (protein)
chain: SITDILSAEDIAAALQECQDPDTFEPQKFFQTSGLSKMSASQVKDIFRFIDNDQSGYLDGDELKYFLQKFQSDARELTESETKSLMDAADNDGDGKIGADEFQEMVHS
RGCs [1]; RGCs, forskolin and mannose present, read-out: effective concentration for half-maximum response (EC50), axon outgrowth
  EC50: ~3.8 nM
RGCs [1]; [6]
  axon outgrowth from RGCs in culture: Neither oncomodulin nor any of the other factors stimulated outgrowth
RGCs [1]; [7]
  axon outgrowth from RGCs in culture: nearly doubled the amount of outgrowth
Optic nerve
  axon regeneration in optic nerve: had no effect
P-CREB
  level of P-CREB in RGCs: markedly increased
RGCs [2]; AP-OM binding to RGCs
  concentration at which binding saturated: greater than 100 nM
RGCs [2]; AP-OM, forskolin-treated RGCs, Scatchard plot, read-out: dissociation constant (Kd), binding to RGCs
  Kd: 28 ± 5 nM
RGCs [2]; displacement of AP-OM by unlabeled oncomodulin, read-out: IC50, reversibility of binding to RGCs
  IC50: ~30 nM
RGCs [2]; excess unlabeled competitor (100-fold)
  displacement of AP-OM from RGCs: displaced AP-OM from RGCs
DRG neurons [3]; CSPG substrate
  DRG neurite outgrowth on nonpermissive substrate: promoted some outgrowth; also recorded: stimulated some outgrowth
DRG neurons [3]; exposed in vivo 1 week, poly-D-lysine+laminin, vs vehicle
  DRG neurite outgrowth on permissive substrate: considerably greater outgrowth
RGCs [4]
  RGC survival: Neither oncomodulin nor any other factor enhanced RGC survival above baseline
DRG neurons [5]
  outgrowth of previously untreated DRG neurons: acts on previously untreated DRG neurons

B2: CNTF: ciliary neurotrophic factor (protein, UniProt P26441 1-200, looked up)
Ciliary neurotrophic factor: MAFTEHSPLTPHRRDLCSRSIWLARKIRSDLTALTESYVKHQGLNKNINLDSADGMPVASTDQWSELTEAERLQENLQAYRTFHVLLARLLEDQQVHFTPTEGDFHQAIHTLLLQVAAFAYQIEELMILLEYKIPRNEADGMPINVGDGGLFEKKLWGLKVLQELSQWTVRSIHDLRFISSHQTGIPARGSHYIANNKKM
RGCs [1]; [6]
  axon outgrowth from RGCs in culture: Neither oncomodulin nor any of the other factors stimulated outgrowth
RGCs [1]; [7]
  axon outgrowth from RGCs in culture: increased axon growth

B3: BDNF: brain-derived neurotrophic factor (protein, UniProt P23560 19-247, looked up)
Neurotrophic factor BDNF …: APMKEANIRGQGGLAYPGVRTHGTLESVNGPKAGSRGLTSLADTFEHVIEELLDEDQKVRPNEENNKDADLYTSRVMLSSQVPLEPPLLFLLEEYKNYLDAANMSMRVRRHSDPARRGELSVCDSISEWVTAADKKTAVDMSGGTVTVLEKVPVSKGQLKQYFYETKCNPMGYTKEGCRGIDKRHWNSQCRTTQSYVRALTMDSKKRIGWRFIRIDTSCVCTLTIKRGR
RGCs [1]; [6]
  axon outgrowth from RGCs in culture: Neither oncomodulin nor any of the other factors stimulated outgrowth
RGCs [1]; [7]
  axon outgrowth from RGCs in culture: ineffective

B4: AP-OM: alkaline phosphatase (AP)-oncomodulin fusion protein (protein)
chain: MSITDILSAEDIAAALQECQDPDTFEPQKFFQTSGLSKMSASQVKDIFRFIDNDQSGYLDGDELKYFLQKFQSDARELTESETKSLMDAADNDGDGKIGADEFQEMVHS
modifications: left off: large carriers; small tags and cut ends
notes: alkaline phosphatase (AP)-oncomodulin fusion protein
RGCs [2]; [cAMP]i elevated with forskolin
  binding to RGCs: bound strongly
RGCs [2]; basal conditions (no forskolin)
  binding to RGCs: Neither AP-OM nor AP showed appreciable binding
RGCs [2]; untreated RGCs permeabilized after light fixation, no forskolin
  binding to RGCs: bound even without previous forskolin treatment
